# Laboratory results from patent US20140242093A1, “METHODS AND COMPOSITIONS FOR MODULATING THE INNATE IMMUNE RESPONSE AND/OR MYOGENESIS IN A MAMMALIAN SUBJECT” (FRED HUTCHINSON CANCER RESEARCH CENTER, priority 2011, published 2014).
# B1: DUX4-s: short splice form of DUX4 (SEQ ID NO:112), keeps the double-homeobox domains, lacks the C-terminal activation domain (protein, listed as Homo sapiens)
# chain: MALPTPSDSTLPAEARGRGRRRRLVWTPSQSEALRACFERNPYPGIATRERLAQAIGIPEPRVQIWFQNERSRQLRQHRRESRPWPGRRGPPEGRRKRTAVTGSQTALLLRAFEKDRFPGIAAREELARETGLPESRIQIWFQNRRARHPGQGGRAPAQV
# Tests used:
# [1] = test system: 31-bp oligonucleotides containing the putative DUX4 binding site; test: Electromobility shift assay (EMSA); set-up: species or system human; conditions: in vitro translated protein; TRIM48, CSF1R, THE1D oligos
# Method: EMSA was performed with ^32P-labeled 31-bp oligonucleotides from endogenous genomic sequences containing the putative DUX4 binding site as probes (sequences below; only forward shown). Radiolabeled probes were incubated with in vitro translated protein generated from pCS2-DUX4-fl or pCS2-DUX4-s^2 vectors using the TNT SP6 Coupled Wheat Germ Extract System (Promega) according to manufacturer's instructions. To obtain supershift of protein-DNA complexes, 0.1 μg of E14-3 anti-DUX4 rabbit monoclonal antibody was added to the mixtures. For competition experiments, excess unlabeled probes of either wild-type or mutant sequences were included in the binding reaction. The gels were prepared and run as previously described (Knoepfler et al., 1999).
# [2] = test system: human rhabdomyosarcoma cell line RD; test: Luciferase reporter assay with DUX4 binding sites; assay type: cell-based
# Method: The DUX4 binding site in the ZSCAN4 pGL3-promoter construct was either reversed in orientation (as shown in FIG. 3D) or moved downstream of the reporter gene (as shown in FIG. 3E). […] Transfections and luciferase assays were done as in main methods. Data are given as the averages±SD of triplicates.
# Transient DNA transfections of RD cells were performed using SuperFect (Qiagen) according to manufacturer specifications. Briefly, 3×10^5 cells were seeded per 35 mm plate the day prior to transfection. […] Cells were lysed 24 h post-transfection in Passive Lysis Buffer (Promega). Luciferase activities were quantified using reagents from the Dual-Luciferase Reporter Assay System (Promega) following manufacturer's instructions. Light emission was measured using BioTek Synergy2 luminometer. Luciferase data are given as the averages±SD of at least triplicates.
# [3] = test system: cultured human skeletal muscle cells; conditions: cited from earlier work
# [4] = test system: Cultured control human myoblasts; test: Beta-defensin 3 and innate immune response, real-time qPCR of IFIH1, ISG20, DEFB103; assay type: cell-based; conditions: RT-qPCR, similar titers, FIG. 7A
# Method: Cultured control human myoblasts were grown to 80% confluence and infected with equivalent titers of lenti-GFP, lenti-DUX4-s and lenti-DUX4-fl in growth media supplemented with 8 μg/mL polybrene. Expression of innate immune responsive genes including IFIH1 (MDA5), ISG20 and DEFB103 were assessed by real-time qPCR as previously described at 24 hours (primer sequences below). For conditioned media, cells were infected with lenti-DUX4-fl for 12 hours, thoroughly washed 3 times with PBS and switched to fresh growth media to condition for 12 hours. Control conditioned media was produced from cells not infected with any lentivirus. Myoblasts were infected with lenti-GFP in either control conditioned media, lenti-DUX4-fl conditioned media or regular growth media supplemented with 1 μM human β-defensin 3 (Peptides International, Louisville, Ky.). Expression of innate immune responsive genes were examined after 24 hours.
molecule,measurement,setting,value
B1,binding to DUX4 core motifs,[1],specifically binds the same core binding site as DUX4-fl
same,luciferase expression from pGL3-promoter reporter with 31 bp DUX4 binding site,"[2]; TRIM48 or ZSCAN4 site, co-transfection in RD cells",did not activate expression
same,effect on DUX4-fl reporter activation when co-expressed,[2]; ZSCAN4 1.9 kb reporter,interfered with the activity of DUX4-fl
same,toxicity of forced over-expression,[3],not toxic
same,induction of the innate immune response in myoblasts,[4],induced the innate immune response
